PMC10307831, “GATA zinc finger protein p66β promotes breast cancer cell migration by acting as a co-activator of Snail”

Columns and labels:
[1] = target: GST-Snail-ΔZn (zinc finger mutant) (UniProt O95863 1-264, H176D;C180A;C210D;H230D;H252D;C259A); assay: pull-down; EMSA: 10 mM Tris pH 7.5, 50 mM KCl, 1 mM DTT, 5 mM MgCl2, 2.5% glycerol, 0.05% NP-40, 50 ng/ul poly(dI.dC), 600 fmol probe, 12 ug GST protein in 20 ul; gel 6% 0.5x TBE 4 C. Pull-down: NeutrAvidin beads, 8 h 4 C, washed in IP buffer (50 mM Tris pH 7.5, 150 mM NaCl, 1% Triton X-100); settings: protein: recombinant; tags: N-terminal GST; label: biotin (probe); blunt
GST-Snail;Flag-p66β = GST-Snail;Flag-p66β (human?;human?, UniProt O95863;Q8WXI9 1-264;1-593, |); assay: pull-down; p66β enhanced Snail binding; EMSA: 10 mM Tris pH 7.5, 50 mM KCl, 1 mM DTT, 5 mM MgCl2, 2.5% glycerol, 0.05% NP-40, 50 ng/ul poly(dI.dC), 600 fmol probe, 12 ug GST protein in 20 ul; gel 6% 0.5x TBE 4 C. Pull-down: NeutrAvidin beads, 8 h 4 C, washed in IP buffer (50 mM Tris pH 7.5, 150 mM NaCl, 1% Triton X-100); settings: protein: recombinant;recombinant; tags: N-terminal GST (pGEX-4T-1);Flag; label: biotin (probe); blunt
Chain of GST-Snail;Flag-p66β (O95863 whole entry, chain 1 of 2): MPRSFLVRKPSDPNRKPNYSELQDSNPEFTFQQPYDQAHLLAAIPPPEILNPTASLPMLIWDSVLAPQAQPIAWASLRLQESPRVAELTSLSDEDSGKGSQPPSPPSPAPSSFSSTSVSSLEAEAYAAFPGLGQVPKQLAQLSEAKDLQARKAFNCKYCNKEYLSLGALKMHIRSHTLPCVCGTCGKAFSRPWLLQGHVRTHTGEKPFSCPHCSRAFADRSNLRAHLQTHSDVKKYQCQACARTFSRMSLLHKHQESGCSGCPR
Chain of GST-Snail;Flag-p66β (Q8WXI9 whole entry, chain 2 of 2): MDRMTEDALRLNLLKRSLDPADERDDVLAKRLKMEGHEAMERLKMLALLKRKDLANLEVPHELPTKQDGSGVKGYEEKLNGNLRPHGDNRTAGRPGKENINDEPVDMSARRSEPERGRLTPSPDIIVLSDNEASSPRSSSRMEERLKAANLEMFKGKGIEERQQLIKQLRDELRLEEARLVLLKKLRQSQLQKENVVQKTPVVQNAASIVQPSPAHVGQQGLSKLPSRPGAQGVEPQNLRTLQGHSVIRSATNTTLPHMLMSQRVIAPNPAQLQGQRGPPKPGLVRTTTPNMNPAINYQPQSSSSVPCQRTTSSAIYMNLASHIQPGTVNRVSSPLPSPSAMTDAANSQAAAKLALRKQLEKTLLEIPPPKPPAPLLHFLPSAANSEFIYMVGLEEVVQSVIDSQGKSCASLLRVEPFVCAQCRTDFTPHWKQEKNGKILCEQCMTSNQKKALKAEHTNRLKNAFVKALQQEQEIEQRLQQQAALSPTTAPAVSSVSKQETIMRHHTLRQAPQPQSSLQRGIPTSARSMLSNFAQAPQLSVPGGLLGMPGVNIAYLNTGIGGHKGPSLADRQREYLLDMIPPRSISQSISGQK

Chain of GST-Snail-ΔZn (zinc finger mutant) (O95863 whole entry H176D/C180A/C210D/H230D/H252D/C259A): as the sequence (O95863 whole entry, chain 1 of 2) above, with H176D, C180A, C210D, H230D, H252D, C259A counted along it

B1: COL6A2-G-box-WT (dsDNA)
DNA 1: GGCCCCCTCCTCCCATCCGCG
DNA 2: CGCGGATGGGAGGAGGGGGCC
binding result [1]: no binding
binding result (GST-Snail;Flag-p66β): binds
